Consider three substances from article PMC10399917 (Journal of Molecular Cell Biology, 2023).

Some results are limits rather than exact numbers.

In test [1] the target is His-TMPRSS2 (transmembrane serine protease 2 with N-terminal 6x histidines) (UniProt O15393). Description: […].
The target of test [2] is VF-TMPRSS2 (transmembrane serine protease 2 with N-terminal Venus-FLAG) (UniProt O15393). Description: […].
Sequence of VF-TMPRSS2 (transmembrane serine protease 2 with N-terminal Venus-FLAG) (O15393 whole entry): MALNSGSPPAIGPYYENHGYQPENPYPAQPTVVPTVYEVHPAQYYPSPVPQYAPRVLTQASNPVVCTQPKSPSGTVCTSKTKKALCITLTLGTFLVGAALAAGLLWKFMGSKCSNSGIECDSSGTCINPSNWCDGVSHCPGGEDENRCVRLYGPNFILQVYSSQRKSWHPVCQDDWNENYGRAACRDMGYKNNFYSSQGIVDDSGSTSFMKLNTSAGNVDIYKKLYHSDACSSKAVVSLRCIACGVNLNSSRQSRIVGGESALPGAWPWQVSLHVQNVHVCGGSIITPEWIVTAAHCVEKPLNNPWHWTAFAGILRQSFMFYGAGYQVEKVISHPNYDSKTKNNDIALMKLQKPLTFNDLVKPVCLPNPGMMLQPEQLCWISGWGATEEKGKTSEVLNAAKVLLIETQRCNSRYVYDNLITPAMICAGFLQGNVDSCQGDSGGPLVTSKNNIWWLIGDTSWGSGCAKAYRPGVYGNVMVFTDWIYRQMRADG

Sequence of His-TMPRSS2 (transmembrane serine protease 2 with N-terminal 6x histidines) (O15393 whole entry): as above

“SPIKE-FLAG (SARS-CoV-2 SPIKE glycoprotein with C-terminal FLAG) (from UniProt P0DTC2 14-1273) (natural protein)”: in test [1], the S/B ratio (TR-FRET signal-to-background) was above 23.

Regarding “SPIKE-VF (SARS-CoV-2 SPIKE glycoprotein with C-terminal Venus-FLAG) (from UniProt P0DTC2 14-1273) (natural protein)”, the S/B ratio (TR-FRET signal-to-background) in test [1] came out at 23.

In the case of “SPIKE-His (SARS-CoV-2 SPIKE glycoprotein with C-terminal 6x histidines) (from UniProt P0DTC2 14-1273) (natural protein)”, the S/B ratio (TR-FRET signal-to-background) in test [2] was above 23.
